The values below come from publication PMC4687910, “Thermostabilization of the Human Serotonin Transporter in an Antidepressant-Bound Conformation” (PLoS ONE, 2015).

This data set deals with T1, NCCc1c[nH]c2ccc(O)cc12.
T1 construct: wild-type hSERT expressed in HEK293S cells
The experiment in a line: cells, lysate or membranes. The format is cell-based, Homo sapiens. The settings on record: Na+ and Cl-.

Regarding “human serotonin transporter (hSERT) (Homo sapiens)”, the Michaelis-Menten constant (Km) was determined as 3.4 µM.

Usually Km stands for the substrate concentration at which the rate is half of its maximum.
